Drawing on the supplement of paper PMC9732359, this text covers protein stability index for 26 sequences.

± gives the uncertainty stated by the source.

The series in a line: protein stability index of a GFP-peptide fusion (yeast GPS) (PSI 1-4); higher = more stable; sorted into four equal gates, so the index is relative within each strain. In short, it runs like this:
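For each peptide, the protein stability index sums the read frequency in every gate after multiplying it by the gate number. Read frequencies came from plasmids that were PCR-amplified from each gate and Illumina-sequenced, with reads assigned to strains by barcodes. The gates were four equal bins of GFP/Cherry fluorescence ratio applied to mid-log yeast in leucine-free medium carrying a pooled library of tiled 17-residue yeast protein peptides fused downstream of GFP on a Cherry-expressing plasmid.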

As to INYAFSMDEEFKNMDCI [SIR3], the protein stability index reads like this: (doa10∆) 3.21 ± 0.051; (pdr5∆) 3.22 ± 0.042; (san1∆) 3.26 ± 0.033; (ubr1∆) 3.321 ± 0.031.
In the same order, the values of IPDFRSSEGFYSKIKHL [SIR2] are 2.33 ± 0.13, 2.21 ± 0.075, 2.17 ± 0.15 and 2.45 ± 0.079.
Regarding IPGEYITYALSGYVRSR [RPS21B], the protein stability index was 2.42 ± 0.059 (doa10∆), 2.73 ± 0.095 (pdr5∆), 2.39 ± 0.093 (san1∆) and 2.77 ± 0.047 (ubr1∆).
Take IPKLKPAPINSLSRDFV [SNU114]: the protein stability index reads like this: (doa10∆) 2.92 ± 0.052; (pdr5∆) 2.8 ± 0.061; (san1∆) 2.68 ± 0.039; (ubr1∆) 2.75 ± 0.047.
Take IPPTFDKGAVGPNNFIW [MED4]: the protein stability index runs as follows: (doa10∆) 3.22 ± 0.091; (pdr5∆) 3.01 ± 0.084; (san1∆) 2.77 ± 0.082; (ubr1∆) 3.14 ± 0.11.
In the same order, the values of IPSGNVWNYTFMGTAFN [PRP8] are 2.76 ± 0.11, 2.47 ± 0.16, 2.74 ± 0.095 and 2.93 ± 0.068.
As to IPSKNTPDASKPSFSFG [YLR335W/NUP2], the protein stability index reads like this: (doa10∆) 2.51 ± 0.15; (pdr5∆) 3.14 ± 0.23; (san1∆) 2.44 ± 0.2; (ubr1∆) 2.78 ± 0.085.
Taken in the same sequence, the figures for IPVNKRRGAHGSELSSK [SIR3] were 3 ± 0.15, 3.03 ± 0.15, 3.11 ± 0.22 and 2.96 ± 0.19.
In the case of IQFLTIGAGVPSLEVAS [FAS1], the protein stability index by setting is: (doa10∆) 1.18 ± 0.037; (pdr5∆) 1.24 ± 0.056; (san1∆) 1.2 ± 0.079; (ubr1∆) 1.11 ± 0.039.
In the same order, the values of IQIFRAHLWQKIHESIV [PRP8] are 2.4 ± 0.098, 2.52 ± 0.09, 2.59 ± 0.073 and 2.47 ± 0.074.
Take IQISKLHYTPIEDLWQF [RPC82]: the protein stability index reads like this: (doa10∆) 2.26 ± 0.12; (pdr5∆) 2.27 ± 0.13; (san1∆) 2.09 ± 0.12; (ubr1∆) 2.36 ± 0.15.
In the same order, the values of IQLIKILNSHFDALRSL [YJL041W/NSP1] are 2.54 ± 0.047, 2.4 ± 0.039, 2.95 ± 0.033 and 2.58 ± 0.035.
With IQLNGGSISEKVDWARE [RPL3], the protein stability index was 2.66 ± 0.29 (doa10∆), 2.96 ± 0.12 (pdr5∆) and 2.88 ± 0.12 (san1∆).
With IQQLHSVLNPFLLRRVK [ISW2], the protein stability index runs as follows: (doa10∆) 2.06 ± 0.061; (pdr5∆) 1.99 ± 0.05; (san1∆) 2.2 ± 0.059; (ubr1∆) 2.37 ± 0.041.
Turning to IQQVVEYADNDEDKFKK [PRP28], the protein stability index was determined as 3.06 ± 0.072 (doa10∆), 3.03 ± 0.093 (pdr5∆), 3.24 ± 0.084 (san1∆) and 3.17 ± 0.047 (ubr1∆).
In the same order, the values of IQSAESIKSQKEEISDQ [SWI3] are 2.4 ± 0.26, 3.08 ± 0.14, 2.58 ± 0.098 and 2.85 ± 0.11.
Turning to IQTKEQVSINSNKILVY [YIL149C/MLP2], the protein stability index (doa10∆) was 2.21 ± 0.076, the protein stability index (pdr5∆) was determined as 2.75 ± 0.17, the protein stability index (san1∆) was 1.85 ± 0.21 and the protein stability index (ubr1∆) was found to be 2.96 ± 0.15.
In the same order, the values of IRARIPFYGSYTETDPA [SRP54] are 2.96 ± 0.092, 2.91 ± 0.082, 2.98 ± 0.06 and 2.96 ± 0.076.
Take IRGAVGNSEAIPGLSAG [RTT102]: the protein stability index (doa10∆) turned out to be 3.23 ± 0.057, the protein stability index (pdr5∆) worked out at 3.36 ± 0.068, the protein stability index (san1∆) is 3.26 ± 0.088 and the protein stability index (ubr1∆) was 3.43 ± 0.053.
Taken in the same sequence, the figures for IRNVIMSASNANDFQLT [SRB8] were 2.06 ± 0.048, 2.34 ± 0.058, 2.24 ± 0.087 and 2.19 ± 0.073.
With IRPLSKPMTAYARADTH [RRP6], the protein stability index is 2.74 ± 0.08 (doa10∆), 2.9 ± 0.083 (pdr5∆), 2.8 ± 0.065 (san1∆) and 2.89 ± 0.14 (ubr1∆).
Taken in the same sequence, the figures for IRQAIAKGLVAYHQKYV [RPS16A] were 1.21 ± 0.096, 1.27 ± 0.069, 1.41 ± 0.18 and 1.1 ± 0.033.
Consider IRRYCDVVAHRQLAGAI [DIS3], for which the protein stability index (doa10∆) is 1.91 ± 0.077, the protein stability index (pdr5∆) worked out at 2.2 ± 0.065, the protein stability index (san1∆) amounted to 1.99 ± 0.097 and the protein stability index (ubr1∆) is 2.18 ± 0.1.
In the same order, the values of IRTQVNTGGESVVKKED [RGR1] are 3.32 ± 0.18, 3.5 ± 0.093, 3.41 ± 0.098 and 3.4 ± 0.088.
Taken in the same sequence, the figures for IRVTNSFALPFEEDEKN [RPN8] were 2.67 ± 0.062, 2.48 ± 0.046, 3.05 ± 0.044 and 3.15 ± 0.043.
Regarding ISDDDDSALRYSILGDR [POP4], the protein stability index amounted to 3.12 ± 0.066 (doa10∆), 2.97 ± 0.093 (pdr5∆), 2.61 ± 0.052 (san1∆) and 2.72 ± 0.089 (ubr1∆).
